# Source: IntAct's records for PubMed 31515488
# B1: Notch homolog 2 N-terminal-like protein A (Homo sapiens), Q7Z3S9 (parent)
# chain: MCVTYHNGTGYCKCPEGFLGEYCQHRDPCEKNRCQNGGTCVAQAMLGKATCRCASGFTGEDCQYSTSHPCFVSRPCLNGGTCHMLSRDTYECTCQVGFTGKECQWTDACLSHPCANGSTCTTVANQFSCKCLTGFTGQKCETDVNECDIPGHCQHGGTCLNLPGSYQCQCLQGFTGQYCDSLYVPCAPSPCVNGGTCRQTGDFTFECNCLPETVRRGTELWERDREVWNGKEHDEN
# partner: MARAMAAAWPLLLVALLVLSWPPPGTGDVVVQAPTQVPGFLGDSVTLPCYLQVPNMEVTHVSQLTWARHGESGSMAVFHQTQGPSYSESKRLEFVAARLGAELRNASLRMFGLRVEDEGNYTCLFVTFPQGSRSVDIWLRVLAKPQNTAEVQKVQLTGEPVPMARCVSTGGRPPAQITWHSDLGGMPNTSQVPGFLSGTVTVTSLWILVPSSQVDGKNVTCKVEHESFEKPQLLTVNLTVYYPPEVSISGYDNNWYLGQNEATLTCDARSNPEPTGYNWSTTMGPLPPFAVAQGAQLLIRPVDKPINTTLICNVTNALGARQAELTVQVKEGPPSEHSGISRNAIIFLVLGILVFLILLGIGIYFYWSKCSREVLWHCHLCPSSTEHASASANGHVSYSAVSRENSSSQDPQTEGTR
# B2: Zinc finger protein 488 (Homo sapiens), Q96MN9 (parent)
# chain: MPEWPPCLSVAPALVITMAAGKGAPLSPSAENRWRLSEPELGRGCKPVLLEKTNRLGPEAAVGRAGRDVGSAELALLVAPGKPRPGKPLPPKTRGEQRQSAFTELPRMKDRQVDAQAQEREHDDPTGQPGAPQLTQNIPRGPAGSKVFSVWPSGARSEQRSAFSKPTKRPAERPELTSVFPAGESADALGELSGLLNTTDLACWGRLSTPKLLVGDLWNLQALPQNAPLCSTFLGAPTLWLEHTQAQVPPPSSSSTTSWALLPPTLTSLGLSTQNWCAKCNLSFRLTSDLVFHMRSHHKKEHAGPDPHSQKRREEALACPVCQEHFRERHHLSRHMTSHS
# B3: Pre-mRNA-splicing factor SPF27 (Homo sapiens), O75934 (parent)
# chain: MAGTGLVAGEVVVDALPYFDQGYEAPGVREAAAALVEEETRRYRPTKNYLSYLTAPDYSAFETDIMRNEFERLAARQPIELLSMKRYELPAPSSGQKNDITAWQECVNNSMAQLEHQAVRIENLELMSQHGCNAWKVYNENLVHMIEHAQKELQKLRKHIQDLNWQRKNMQLTAGSKLREMESNWVSLVSKNYEIERTIVQLENEIYQIKQQHGEANKENIRQDF
# partner: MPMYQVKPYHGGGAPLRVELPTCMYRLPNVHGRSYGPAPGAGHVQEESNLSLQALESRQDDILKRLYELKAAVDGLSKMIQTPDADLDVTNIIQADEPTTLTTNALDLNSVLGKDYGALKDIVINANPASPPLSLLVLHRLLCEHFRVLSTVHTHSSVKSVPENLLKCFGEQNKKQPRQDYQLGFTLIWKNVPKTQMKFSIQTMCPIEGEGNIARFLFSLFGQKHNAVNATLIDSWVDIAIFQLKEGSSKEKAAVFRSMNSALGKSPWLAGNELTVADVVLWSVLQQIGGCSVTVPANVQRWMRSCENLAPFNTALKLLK
# B4: Uridine diphosphate glucose pyrophosphatase NUDT22 (Homo sapiens), Q9BRQ3 (parent)
# chain: MDPEVTLLLQCPGGGLPQEQIQAELSPAHDRRPLPGGDEAITAIWETRLKAQPWLFDAPKFRLHSATLAPIGSRGPQLLLRLGLTSYRDFLGTNWSSSAAWLRQQGATDWGDTQAYLADPLGVGAALATADDFLVFLRRSRQVAEAPGLVDVPGGHPEPQALCPGGSPQHQDLAGQLVVHELFSSVLQEICDEVNLPLLTLSQPLLLGIARNETSAGRASAEFYVQCSLTSEQVRKHYLSGGPEAHESTGIFFVETQNVQRLLETEMWAELCPSAKGAIILYNRVQGSPTGAALGSPALLPPL
# partner: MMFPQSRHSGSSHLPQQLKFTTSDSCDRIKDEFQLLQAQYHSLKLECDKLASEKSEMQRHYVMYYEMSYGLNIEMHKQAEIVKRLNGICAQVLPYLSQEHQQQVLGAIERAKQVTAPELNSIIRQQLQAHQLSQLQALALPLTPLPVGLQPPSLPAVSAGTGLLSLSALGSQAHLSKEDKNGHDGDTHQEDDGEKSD
# B5: Tuftelin-interacting protein 11 (Homo sapiens), Q9UBB9 (parent)
# chain: MSLSHLYRDGEGRIDDDDDERENFEITDWDLQNEFNPNRQRHWQTKEEATYGVWAERDSDDERPSFGGKRARDYSAPVNFISAGLKKGAAEEAELEDSDDEEKPVKQDDFPKDFGPRKLKTGGNFKPSQKGFAGGTKSFMDFGSWERHTKGIGQKLLQKMGYVPGRGLGKNAQGIINPIEAKQRKGKGAVGAYGSERTTQSMQDFPVVDSEEEAEEEFQKELSQWRKDPSGSKKKPKYSYKTVEELKAKGRISKKLTAPQKELSQVKVIDMTGREQKVYYSYSQISHKHNVPDDGLPLQSQQLPQSGKEAKAPGFALPELEHNLQLLIDLTEQEIIQNDRQLQYERDMVVNLFHELEKMTEVLDHEERVISNLSKVLEMVEECERRMQPDCSNPLTLDECARIFETLQDKYYEEYRMSDRVDLAVAIVYPLMKEYFKEWDPLKDCTYGTEIISKWKSLLENDQLLSHGGQDLSADAFHRLIWEVWMPFVRNIVTQWQPRNCDPMVDFLDSWVHIIPVWILDNILDQLIFPKLQKEVENWNPLTDTVPIHSWIHPWLPLMQARLEPLYSPIRSKLSSALQKWHPSDSSAKLILQPWKDVFTPGSWEAFMVKNIVPKLGMCLGELVINPHQQHMDAFYWVIDWEGMISVSSLVGLLEKHFFPKWLQVLCSWLSNSPNYEEITKWYLGWKSMFSDQVLAHPSVKDKFNEALDIMNRAVSSNVGAYMQPGARENIAYLTHTERRKDFQYEAMQERREAENMAQRGIGVAASSVPMNFKDLIETKAEEHNIVFMPVIGKRHEGKQLYTFGRIVIYIDRGVVFVQGEKTWVPTSLQSLIDMAK
# partner: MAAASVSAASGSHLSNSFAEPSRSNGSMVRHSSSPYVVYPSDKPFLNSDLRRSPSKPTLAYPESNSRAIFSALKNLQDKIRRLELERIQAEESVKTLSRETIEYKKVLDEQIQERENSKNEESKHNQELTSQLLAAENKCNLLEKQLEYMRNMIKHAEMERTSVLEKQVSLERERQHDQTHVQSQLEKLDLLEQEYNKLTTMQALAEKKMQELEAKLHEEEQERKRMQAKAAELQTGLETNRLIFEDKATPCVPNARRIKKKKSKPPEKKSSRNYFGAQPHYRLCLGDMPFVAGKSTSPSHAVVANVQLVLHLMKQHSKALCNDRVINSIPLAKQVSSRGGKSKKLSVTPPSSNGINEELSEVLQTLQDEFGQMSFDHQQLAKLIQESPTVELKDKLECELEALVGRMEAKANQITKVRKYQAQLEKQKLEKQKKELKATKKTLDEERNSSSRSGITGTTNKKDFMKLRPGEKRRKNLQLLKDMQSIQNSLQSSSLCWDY
# B6: Protein FAM9B (Homo sapiens), Q8IZU0 (parent)
# chain: MAAWGKKHAGKDPVRDECEERNRFTETREEDVTDEHGEREPFAETDEHTGANTKKPEDTAEDLTAKRKRMKMDKTCSKTKNKSKHALRKKQLKRQKRDYIHSLKLLNVLEEYITDEQKEEEEEEGEEEELIRIFQEQQKKWQQYRSVRRERLKEMKLLRDQFVKALEDFEDLCDRVFSDEDSELDN
# partner: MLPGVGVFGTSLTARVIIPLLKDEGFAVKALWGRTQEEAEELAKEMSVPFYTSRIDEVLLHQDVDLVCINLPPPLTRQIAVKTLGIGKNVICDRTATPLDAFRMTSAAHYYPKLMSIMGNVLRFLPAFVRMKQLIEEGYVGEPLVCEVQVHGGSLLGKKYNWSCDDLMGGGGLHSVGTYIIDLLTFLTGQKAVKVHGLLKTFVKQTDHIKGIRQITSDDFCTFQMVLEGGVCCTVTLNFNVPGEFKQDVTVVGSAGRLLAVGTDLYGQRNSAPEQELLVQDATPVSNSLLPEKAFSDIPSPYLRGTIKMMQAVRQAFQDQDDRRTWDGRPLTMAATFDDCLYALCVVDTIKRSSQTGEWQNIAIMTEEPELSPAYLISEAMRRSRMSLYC
# B7: Transmembrane protein 79 (Homo sapiens), Q9BSE2 (parent)
# chain: MTEQETLALLEVKRSDSPEKSSPQALVPNGRQPEGEGGAESPGAESLRVGSSAGSPTAIEGAEDGLDSTVSEAATLPWGTGPQPSAPFPDPPGWRDIEPEPPESEPLTKLEELPEDDANLLPEKAARAFVPIDLQCIERQPQEDLIVRCEAGEGECRTFMPPRVTHPDPTERKWAEAVVRPPGCSCGGCGSCGDREWLRAVASVGAALILFPCLLYGAYAFLPFDVPRLPTMSSRLIYTLRCGVFATFPIVLGILVYGLSLLCFSALRPFGEPRREVEIHRRYVAQSVQLFILYFFNLAVLSTYLPQDTLKLLPLLTGLFAVSRLIYWLTFAVGRSFRGFGYGLTFLPLLSMLMWNLYYMFVVEPERMLTATESRLDYPDHARSASDYRPRPWG
# partner: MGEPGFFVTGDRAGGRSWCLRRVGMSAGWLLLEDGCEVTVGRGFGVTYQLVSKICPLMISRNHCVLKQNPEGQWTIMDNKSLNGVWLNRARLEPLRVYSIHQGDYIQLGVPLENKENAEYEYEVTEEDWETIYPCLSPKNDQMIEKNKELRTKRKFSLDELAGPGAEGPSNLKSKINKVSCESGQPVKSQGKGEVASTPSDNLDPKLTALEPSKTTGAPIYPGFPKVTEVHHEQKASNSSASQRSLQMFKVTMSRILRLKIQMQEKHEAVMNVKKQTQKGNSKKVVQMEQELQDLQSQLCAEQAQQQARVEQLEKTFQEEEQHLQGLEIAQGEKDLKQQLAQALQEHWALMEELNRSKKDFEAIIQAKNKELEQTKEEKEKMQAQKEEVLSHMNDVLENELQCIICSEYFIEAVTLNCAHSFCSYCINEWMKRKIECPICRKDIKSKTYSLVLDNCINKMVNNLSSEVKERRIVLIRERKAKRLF
# B8: Mitochondrial fission 1 protein (Homo sapiens), Q9Y3D6 (parent)
# chain: MEAVLNELVSVEDLLKFEKKFQSEKAAGSVSKSTQFEYAWCLVRSKYNDDIRKGIVLLEELLPKGSKEEQRDYVFYLAVGNYRLKEYEKALKYVRGLLQTEPQNNQAKELERLIDKAMKKDGLVGMAIVGGMALGVAGLAGLIGLAVSKSKS
# partner: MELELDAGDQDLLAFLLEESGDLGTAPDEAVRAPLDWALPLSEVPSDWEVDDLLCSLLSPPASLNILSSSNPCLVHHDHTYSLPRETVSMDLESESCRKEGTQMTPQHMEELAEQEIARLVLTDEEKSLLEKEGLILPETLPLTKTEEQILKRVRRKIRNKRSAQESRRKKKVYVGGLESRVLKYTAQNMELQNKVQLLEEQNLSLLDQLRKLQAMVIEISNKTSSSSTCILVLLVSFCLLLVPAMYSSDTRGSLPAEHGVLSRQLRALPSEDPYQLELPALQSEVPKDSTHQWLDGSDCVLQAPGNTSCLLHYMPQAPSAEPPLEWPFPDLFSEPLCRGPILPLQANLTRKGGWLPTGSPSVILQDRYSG
# Variants of: B1
# Settings: with pvr_human PVR
row,effect of a mutation on the interaction,Variant
1,with no effect,R74Q
2,with no effect,A115T

# Variants of: B2
# Settings: with rbpms_human RBPMS
row,effect of a mutation on the interaction,Variant
1,with no effect,A72V

# Variants of: B3
# Settings: with aimp2_human AIMP2, Q13155
row,effect of a mutation on the interaction,Variant
1,with no effect,N139S

# Variants of: B4
# Settings: with tle5_human TLE5, Q08117
row,effect of a mutation on the interaction,Variant
1,with no effect,G36C

# Variants of: B5
# Settings: with cep57_human CEP57, Q86XR8
row,effect of a mutation on the interaction,Variant
1,with no effect,S688L
2,with no effect,R8Q

# Variants of: B6
# Settings: with gfod1_human GFOD1, Q9NXC2
row,effect of a mutation on the interaction,Variant
1,with no effect,R23H

# Variants of: B7
# Settings: with rnf8_human RNF8, O76064
row,effect of a mutation on the interaction,Variant
1,with no effect,S104T
2,with no effect,V147M
3,with no effect,D144G

# Variants of: B8
# Settings: with creb3_human CREB3, O43889
row,effect of a mutation on the interaction,Variant
1,with no effect,V124M
